According to paper PMC8270960, “Native flagellar MS ring is formed by 34 subunits with 23-fold and 11-fold subsymmetries” (Nature Communications, 2021):
Values joined by “and” are separate entries in the source; they are usually repeats but may differ in a detail not shown here. Equal entries are not always repeated.

What was measured:
[1] = molecular target: FliG ΔPAA of the C ring of the CW-locked basal body (Salmonella enterica serovar Typhimurium (in TM022)) (UniProt P0A1J9); experiment: cryo-EM structure; end-on view cryoEM images of the C ring of purified wild-type (CCW) and CW mutant basal bodies; rotational symmetry of single particles by autocorrelation and Fourier transformation (98 and 75 particles)
[2] = molecular target: the molecule itself; experiment: cryo-EM structure; 2D class averages of end-on views of the basal body (rivet) purified from Salmonella HK1003; rotational symmetry by autocorrelation and Fourier transformation; assembly formed in cells, purified as a whole
[3] = molecular target: the molecule itself; experiment: negative-stain EM; MS rings purified from E. coli cells overexpressing mutant variants of FliF, observed by negative staining EM
[4] = molecular target: the molecule itself; experiment: cryo-EM structure; MS ring of full-length FliF (dataset 2, pKOT105); 3D refinement with C1, C11 and C34 symmetry (12, 9.0 and 7.4 Å)
[5] = molecular target: the molecule itself; experiment: cryo-EM structure; rings of FliF_(1-503) and FliF_(1-456) in Buffer S with 0.1% Triton-X100; 3D classification and reconstruction with C1 symmetry

Molecule | binding result [3] | also measured
FliG ΔPAA of the C ring of the CW-locked basal body (from UniProt P0A1J9 1-331) (natural protein) | – | stoichiometry N [1]: 33 -fold to 36 -fold (2×) and 34 -fold
FliF of the native flagellar basal body (native MS ring) (natural protein, source: endogenous, basal body purified from Salmonella HK1003 (sucrose density gradient); copies: 34) MSATASTATQPKPLEWLNRLRANPRIPLIVAGSAAVAIVVAMVLWAKTPDYRTLFSNLSDQDGGAIVAQLTQMNIPYRFANGSGAIEVPADKVHELRLRLAQQGLPKGGAVGFELLDQEKFGISQFSEQVNYQRALEGELARTIETLGPVKSARVHLAMPKPSLFVREQKSPSASVTVTLEPGRALDEGQISAVVHLVSSAVAGLPPGNVTLVDQSGHLLTQSNTSGRDLNDAQLKFANDVESRIQRRIEAILSPIVGNGNVHAQVTAQLDFANKEQTEEHYSPNGDASKATLRSRQLNISEQVGAGYPGGVPGALSNQPAPPNEAPIATPPTNQQNAQNTPQTSTSTNSNSAGPRSTQRNETSNYEVDRTIRHTKMNVGDIERLSVAVVVNYKTLADGKPLPLTADQMKQIEDLTREAMGFSDKRGDTLNVVNSPFSAVDNTGGELPFWQQQSFIDQLLAAGRWLLVLVVAWILWRKAVRPQLTRRVEEAKAAQEQAQVRQETEEAVEVRLSKDEQLQQRRANQRLGAEVMSQRIREMSDNDPRVVALVIRQWMSNDHE | – | stoichiometry N [2]: 34 subunits
FliF(V266A), overexpressed in E. coli (natural protein, source: E. coli, overexpressed, MS rings purified) MSATASTATQPKPLEWLNRLRANPRIPLIVAGSAAVAIVVAMVLWAKTPDYRTLFSNLSDQDGGAIVAQLTQMNIPYRFANGSGAIEVPADKVHELRLRLAQQGLPKGGAVGFELLDQEKFGISQFSEQVNYQRALEGELARTIETLGPVKSARVHLAMPKPSLFVREQKSPSASVTVTLEPGRALDEGQISAVVHLVSSAVAGLPPGNVTLVDQSGHLLTQSNTSGRDLNDAQLKFANDVESRIQRRIEAILSPIVGNGNVHAQATAQLDFANKEQTEEHYSPNGDASKATLRSRQLNISEQVGAGYPGGVPGALSNQPAPPNEAPIATPPTNQQNAQNTPQTSTSTNSNSAGPRSTQRNETSNYEVDRTIRHTKMNVGDIERLSVAVVVNYKTLADGKPLPLTADQMKQIEDLTREAMGFSDKRGDTLNVVNSPFSAVDNTGGELPFWQQQSFIDQLLAAGRWLLVLVVAWILWRKAVRPQLTRRVEEAKAAQEQAQVRQETEEAVEVRLSKDEQLQQRRANQRLGAEVMSQRIREMSDNDPRVVALVIRQWMSNDHE | binds | –
full-length Salmonella FliF (MS ring, dataset 2, from pKOT105) (natural protein, also called FliF overexpressed from another construct; FliF ring dataset 2; source: E. coli BL21 (DE3) carrying pKOT105, MS ring purified from the membrane fraction (sucrose gradient, LMNG); copies: 34) MSATASTATQPKPLEWLNRLRANPRIPLIVAGSAAVAIVVAMVLWAKTPDYRTLFSNLSDQDGGAIVAQLTQMNIPYRFANGSGAIEVPADKVHELRLRLAQQGLPKGGAVGFELLDQEKFGISQFSEQVNYQRALEGELARTIETLGPVKSARVHLAMPKPSLFVREQKSPSASVTVTLEPGRALDEGQISAVVHLVSSAVAGLPPGNVTLVDQSGHLLTQSNTSGRDLNDAQLKFANDVESRIQRRIEAILSPIVGNGNVHAQVTAQLDFANKEQTEEHYSPNGDASKATLRSRQLNISEQVGAGYPGGVPGALSNQPAPPNEAPIATPPTNQQNAQNTPQTSTSTNSNSAGPRSTQRNETSNYEVDRTIRHTKMNVGDIERLSVAVVVNYKTLADGKPLPLTADQMKQIEDLTREAMGFSDKRGDTLNVVNSPFSAVDNTGGELPFWQQQSFIDQLLAAGRWLLVLVVAWILWRKAVRPQLTRRVEEAKAAQEQAQVRQETEEAVEVRLSKDEQLQQRRANQRLGAEVMSQRIREMSDNDPRVVALVIRQWMSNDHE | – | stoichiometry N [4]: 34 subunits
FliF(I252R), overexpressed in E. coli (natural protein, source: E. coli, overexpressed, MS rings purified) MSATASTATQPKPLEWLNRLRANPRIPLIVAGSAAVAIVVAMVLWAKTPDYRTLFSNLSDQDGGAIVAQLTQMNIPYRFANGSGAIEVPADKVHELRLRLAQQGLPKGGAVGFELLDQEKFGISQFSEQVNYQRALEGELARTIETLGPVKSARVHLAMPKPSLFVREQKSPSASVTVTLEPGRALDEGQISAVVHLVSSAVAGLPPGNVTLVDQSGHLLTQSNTSGRDLNDAQLKFANDVESRIQRRIEARLSPIVGNGNVHAQVTAQLDFANKEQTEEHYSPNGDASKATLRSRQLNISEQVGAGYPGGVPGALSNQPAPPNEAPIATPPTNQQNAQNTPQTSTSTNSNSAGPRSTQRNETSNYEVDRTIRHTKMNVGDIERLSVAVVVNYKTLADGKPLPLTADQMKQIEDLTREAMGFSDKRGDTLNVVNSPFSAVDNTGGELPFWQQQSFIDQLLAAGRWLLVLVVAWILWRKAVRPQLTRRVEEAKAAQEQAQVRQETEEAVEVRLSKDEQLQQRRANQRLGAEVMSQRIREMSDNDPRVVALVIRQWMSNDHE | binds | –
FliF(V266R), overexpressed in E. coli (natural protein, source: E. coli, overexpressed, MS rings purified) MSATASTATQPKPLEWLNRLRANPRIPLIVAGSAAVAIVVAMVLWAKTPDYRTLFSNLSDQDGGAIVAQLTQMNIPYRFANGSGAIEVPADKVHELRLRLAQQGLPKGGAVGFELLDQEKFGISQFSEQVNYQRALEGELARTIETLGPVKSARVHLAMPKPSLFVREQKSPSASVTVTLEPGRALDEGQISAVVHLVSSAVAGLPPGNVTLVDQSGHLLTQSNTSGRDLNDAQLKFANDVESRIQRRIEAILSPIVGNGNVHAQRTAQLDFANKEQTEEHYSPNGDASKATLRSRQLNISEQVGAGYPGGVPGALSNQPAPPNEAPIATPPTNQQNAQNTPQTSTSTNSNSAGPRSTQRNETSNYEVDRTIRHTKMNVGDIERLSVAVVVNYKTLADGKPLPLTADQMKQIEDLTREAMGFSDKRGDTLNVVNSPFSAVDNTGGELPFWQQQSFIDQLLAAGRWLLVLVVAWILWRKAVRPQLTRRVEEAKAAQEQAQVRQETEEAVEVRLSKDEQLQQRRANQRLGAEVMSQRIREMSDNDPRVVALVIRQWMSNDHE | binds | –
FliF(L253A), overexpressed in E. coli (natural protein, source: E. coli, overexpressed, MS rings purified) MSATASTATQPKPLEWLNRLRANPRIPLIVAGSAAVAIVVAMVLWAKTPDYRTLFSNLSDQDGGAIVAQLTQMNIPYRFANGSGAIEVPADKVHELRLRLAQQGLPKGGAVGFELLDQEKFGISQFSEQVNYQRALEGELARTIETLGPVKSARVHLAMPKPSLFVREQKSPSASVTVTLEPGRALDEGQISAVVHLVSSAVAGLPPGNVTLVDQSGHLLTQSNTSGRDLNDAQLKFANDVESRIQRRIEAIASPIVGNGNVHAQVTAQLDFANKEQTEEHYSPNGDASKATLRSRQLNISEQVGAGYPGGVPGALSNQPAPPNEAPIATPPTNQQNAQNTPQTSTSTNSNSAGPRSTQRNETSNYEVDRTIRHTKMNVGDIERLSVAVVVNYKTLADGKPLPLTADQMKQIEDLTREAMGFSDKRGDTLNVVNSPFSAVDNTGGELPFWQQQSFIDQLLAAGRWLLVLVVAWILWRKAVRPQLTRRVEEAKAAQEQAQVRQETEEAVEVRLSKDEQLQQRRANQRLGAEVMSQRIREMSDNDPRVVALVIRQWMSNDHE | binds | –
FliF(I252A), overexpressed in E. coli (natural protein, source: E. coli, overexpressed, MS rings purified) MSATASTATQPKPLEWLNRLRANPRIPLIVAGSAAVAIVVAMVLWAKTPDYRTLFSNLSDQDGGAIVAQLTQMNIPYRFANGSGAIEVPADKVHELRLRLAQQGLPKGGAVGFELLDQEKFGISQFSEQVNYQRALEGELARTIETLGPVKSARVHLAMPKPSLFVREQKSPSASVTVTLEPGRALDEGQISAVVHLVSSAVAGLPPGNVTLVDQSGHLLTQSNTSGRDLNDAQLKFANDVESRIQRRIEAALSPIVGNGNVHAQVTAQLDFANKEQTEEHYSPNGDASKATLRSRQLNISEQVGAGYPGGVPGALSNQPAPPNEAPIATPPTNQQNAQNTPQTSTSTNSNSAGPRSTQRNETSNYEVDRTIRHTKMNVGDIERLSVAVVVNYKTLADGKPLPLTADQMKQIEDLTREAMGFSDKRGDTLNVVNSPFSAVDNTGGELPFWQQQSFIDQLLAAGRWLLVLVVAWILWRKAVRPQLTRRVEEAKAAQEQAQVRQETEEAVEVRLSKDEQLQQRRANQRLGAEVMSQRIREMSDNDPRVVALVIRQWMSNDHE | binds | –
FliF(L253R), overexpressed in E. coli (natural protein, source: E. coli, overexpressed, MS rings purified) MSATASTATQPKPLEWLNRLRANPRIPLIVAGSAAVAIVVAMVLWAKTPDYRTLFSNLSDQDGGAIVAQLTQMNIPYRFANGSGAIEVPADKVHELRLRLAQQGLPKGGAVGFELLDQEKFGISQFSEQVNYQRALEGELARTIETLGPVKSARVHLAMPKPSLFVREQKSPSASVTVTLEPGRALDEGQISAVVHLVSSAVAGLPPGNVTLVDQSGHLLTQSNTSGRDLNDAQLKFANDVESRIQRRIEAIRSPIVGNGNVHAQVTAQLDFANKEQTEEHYSPNGDASKATLRSRQLNISEQVGAGYPGGVPGALSNQPAPPNEAPIATPPTNQQNAQNTPQTSTSTNSNSAGPRSTQRNETSNYEVDRTIRHTKMNVGDIERLSVAVVVNYKTLADGKPLPLTADQMKQIEDLTREAMGFSDKRGDTLNVVNSPFSAVDNTGGELPFWQQQSFIDQLLAAGRWLLVLVVAWILWRKAVRPQLTRRVEEAKAAQEQAQVRQETEEAVEVRLSKDEQLQQRRANQRLGAEVMSQRIREMSDNDPRVVALVIRQWMSNDHE | binds | –
FliF_(1-503) (domain or fragment, also called C-terminally-truncated FliF fragment with 57 residues truncated; copies: 33) MSATASTATQPKPLEWLNRLRANPRIPLIVAGSAAVAIVVAMVLWAKTPDYRTLFSNLSDQDGGAIVAQLTQMNIPYRFANGSGAIEVPADKVHELRLRLAQQGLPKGGAVGFELLDQEKFGISQFSEQVNYQRALEGELARTIETLGPVKSARVHLAMPKPSLFVREQKSPSASVTVTLEPGRALDEGQISAVVHLVSSAVAGLPPGNVTLVDQSGHLLTQSNTSGRDLNDAQLKFANDVESRIQRRIEAILSPIVGNGNVHAQVTAQLDFANKEQTEEHYSPNGDASKATLRSRQLNISEQVGAGYPGGVPGALSNQPAPPNEAPIATPPTNQQNAQNTPQTSTSTNSNSAGPRSTQRNETSNYEVDRTIRHTKMNVGDIERLSVAVVVNYKTLADGKPLPLTADQMKQIEDLTREAMGFSDKRGDTLNVVNSPFSAVDNTGGELPFWQQQSFIDQLLAAGRWLLVLVVAWILWRKAVRPQLTRRVEEAKAAQEQAQVRQE | – | stoichiometry N [5]: 33 -fold
